Laboratory results published in patent publication US20210206861A1.

Experiments:
[1] = target: Biotinated IL-4R-ECD-hFc (human) (UniProt P24394); assay: blocking ELISA: coated IL-4-hFc (2000 ng/ml), biotinylated IL-4R-ECD-hFc (100 ng/ml) with antibody in dilution series, Streptavidin-HRP
IL-4R-ECD-FLAG (human) [2] = target: IL-4R-ECD-FLAG (human) (UniProt P24394); assay: ELISA on coated IL-4R-ECD-FLAG (100 ng/ml), HRP goat anti-human secondary
IL-4R-ECD-FLAG (human) [3] = target: IL-4R-ECD-FLAG (human) (UniProt P24394); assay: SPR, Biacore T200; antibody captured on Protein A/G CM5 chip, IL-4R-ECD-FLAG injected

- IC50 [1]: 0.138 µg/mL
- EC50 (IL-4R-ECD-FLAG (human) [2]): 0.0125 µg/mL
- Kd (IL-4R-ECD-FLAG (human) [3]): 0.671 nM
- koff (IL-4R-ECD-FLAG (human) [3]): 3.95e-05 s⁻¹
- kon (IL-4R-ECD-FLAG (human) [3]): 58800 M⁻¹ s⁻¹
B1: Dupilumab (antibody, INN chains, looked up, V domains shown)
VH: EVQLVESGGGLEQPGGSLRLSCAGSGFTFRDYAMTWVRQAPGKGLEWVSSISGSGGNTYYADSVKGRFTISRDNSKNTLYLQMNSLRAEDTAVYYCAKDRLSITIRPRYYGLDVWGQGTTVTVSS
VL: DIVMTQSPLSLPVTPGEPASISCRSSQSLLYSIGYNYLDWYLQKSGQSPQLLIYLGSNRASGVPDRFSGSGSGTDFTLKISRVEAEDVGFYYCMQALQTPYTFGQGTKLEIKR
